Reference: the nanobody polyreactivity screen of Harvey et al. (2022)

Assay: yeast display, Sf9 membrane polyspecificity reagent, FACS + sequencing; frameworks hold sequencing errors
Summary of the method: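 In a synthetic yeast display library (Saccharomyces cerevisiae BJ5465), nanobody expression was induced with galactose for 36–48 hours. FACS gates were set low and high (top ~1%) using anti-HA fluorescence for expression and streptavidin fluorescence for binding of the Sf9 membrane reagent. Each polyreactivity label is drawn from the gate of origin.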

QVQLVESGGGLVQAGGSIRLSCAASGITFTLYAMGWYRQAPGKEMELVAAITISAGSTYYADSVKGRFTISRDNAKNTVYLQINSLKPEDTAVYYCAAESYGSWYYYWGQGTQVTVSS
polyreactivity (PSR sort gate): high polyreactivity

QVQLVESCGGLVQAGGSLRLSCPASGSIFHVNVMGCYRQEPGKERELVAAITYSGGATYYADSVKGRFTISRDNAKNTVYLQMNSLKPEDTAVYYCAAYPYWFFPHYDSWGQGTLVTVSS
polyreactivity (PSR sort gate): low polyreactivity

QVQLVESGGGLVQAGGSLRLSCAAYGSIFYFNAMGWYRQAPGKERELVAAITYNGGSTRYADSVKGRFTISRDNAKNTVYLQMNSLKPEDTAVYYCAARAKYGPEDGYWGQGTQVTVSS
polyreactivity (PSR sort gate): high polyreactivity

QGQLVESGGGLVQAGGSLRLSCAASGGIFTDYAMGWYRQAPGKERELVAAITRRGGRTYYADSVKGRFTISRDNAKNPVYLQMNSLKPEDTAVYYCAATRSGEYDYWGQGTQVTVSS
polyreactivity (PSR sort gate): high polyreactivity

QVQLVESGGGLVQAGGSLRLSCAASGSIFVPYAMGWYRQAPGKERELVAAITWSGSSTYYADSVKGRFTISRDNAKNTVYLQMNSLKPEDTAVYYCAADYFDWEGNGYYYWGQGTQVTVSS
polyreactivity (PSR sort gate): high polyreactivity

QVQLVESGGGLVQAGGTLRLSCAASGRTLHGYAMGWYRQAPGKERELVASITWSGASTYYADSVKGRFTISRDNAKNTVYLQMNSLKPEDTAVYYCAADRSRYVRRRYGYWGQGTQVTVSS
polyreactivity (PSR sort gate): high polyreactivity

QVQLVESGGGLVQAGGSLRLSCAASGFIFSYYAMGWYRQAPGKEREFVAAISRRGGSTYYADSVKGRFTISRDNAKNTVYLQMISLKPDDSAVYYCARRRTSTAVREHYYRDWYGYDYWGQGTQVTVSS
polyreactivity (PSR sort gate): high polyreactivity

QVQLVESGGGLVQAGGRLRLSCAASGYTFPLYARGWYRQAPGKERELVADINIGGASSYYADSVKGRVTISRDNAKKTVYLQMNSLKPEDTAVYYCAKEYYDGYFPTFDYDYWGQGTQVTVSS
polyreactivity (PSR sort gate): low polyreactivity

QVQLVESGGGLVQAGGSLRLSCAASGFTFRHYTMGWYRQAPGKERELVAAISSSGVTTYYADSVKGRFTISRDNAKNTVYLQMISLKPEDTAVYYCADRPYYYYVDYDYWGLGTQVTVSS
polyreactivity (PSR sort gate): high polyreactivity

QVQLVESGGGLVQAGGSLRLSCAASGRILNYNAMGWYRQAPGKERELVAAITSSGGSTYYADSVKGRFTISRDNAKNTVYLQMNSLKPEDTAVYYCNALITYSSDYWGQGTQVTVSS
polyreactivity (PSR sort gate): low polyreactivity

QVQLVESGGGLVQAGGSLRLSCAASGRTFYYYDMGWYRQAPGKERELVAAISASGGSTYYADSVKGRFTISRDNAKNTVYLPMNSLKPDDTAVYYCAATLYHYWYSDFDYWGQGTQVTVSS
polyreactivity (PSR sort gate): high polyreactivity

QVQLVESGGGLVQAGGSLRLSCAASGRTFYSYTMGWYRQAPGKDRELVAAITRSGGRTYYADSVKGRFTISRDNAKNTVYLQMNSLKPDDTAVYYCAKGWVSYWRYKNEYWGQGTQVTVSS
polyreactivity (PSR sort gate): high polyreactivity

QVQLVVSGGGLVQAGGSLRLSCAASGSTFQYNAMGWYRQAPGKERELVAAISTGTSTYYADSVKGRFTISRDNAKNTVYLQLNSLKTEVTAVYYCAAEYWGDYTEYNYWGHGTQVTVSS
polyreactivity (PSR sort gate): high polyreactivity

QVQLVESGGGLVQAGGSLRLSCAASGRTFVTYAMGWYRQAPGKEREFVASISSDSGNTYYADSVKGRFTISRDNAKNTLYFQMNSLKPEDTAVYYCARRKVRYWSYPAAHYYWGQGTQVTVSS
polyreactivity (PSR sort gate): low polyreactivity

QVQLVQSGGGLVQAGGSLRLICAASGRTFYGNAMGWYRQAPGKERELVAAISRSGGRTYYADSVKGRFTISRDNAKNTVYLQMISLKTEDTAVYYCAKDYYYPSHTYGYWGQGTQVTVST
polyreactivity (PSR sort gate): high polyreactivity

QVQLVESGGGLVQAGGSLRLSCAASGSTFVQNAMGWYRQAPGKERELVAAISKSGGRTYYADSVKGRFTISRDNEKNTVYLQINSLNAEDTAVYYCARPYSRAYDYWGQGTQVTVSS
polyreactivity (PSR sort gate): high polyreactivity

QVQLVESGGGLVQAGGSLRLSCAASGSTFPSYAMGWYRQAPGKERELVAAINSGGGTNYADSVKGRFTISRDNAKNTVYLQMNSLKPEDTAVYYCNTDILSIYAEPYYFTDVDYWGQGTQVTVSS
polyreactivity (PSR sort gate): low polyreactivity

QVQLVESGGGLVQAGGSLRLSCAATGRTFRVYAIGWYRHAHAKEREFVATISVRGGSTYYADSVKGRFTISRDNAKNTVYLQMNSLKPEDTAVYYCAADSYPYVYALYDYWGQGTQVTVSS
polyreactivity (PSR sort gate): low polyreactivity

QVQLVESGGGLVQAVGSLRLSCAASGITFRWYTMGWYRQAPGKERELVASIRYGGGSTYYADSVKGRFTISRDNAKNTVYLQMNSLKPEDTAVYYCDAESAWTSPYDYWGQGTQVTVSS
polyreactivity (PSR sort gate): high polyreactivity

QVQLVESGGGLVQAGGSLRLSCAAFGFTFNSYAMGWNRQAPGKERELVAGITSSGGGTYYADSVKGRFTISRDNAKNTVYLQMNSLKPEDTAVYYCNTYSYLFSRYGFWGQGTQVTVSS
polyreactivity (PSR sort gate): high polyreactivity

QVQLVESGGGLVQAGGSLRLSCSASGSIFSANVMGWYRQAPGKDRELVAAIRRGGTTYYADSVKGRFTISRDNAKNTVYLQMNSLKPEDNAVYYCATDGIFGSYLRFEVAYDYWGQGTQVTVSS
polyreactivity (PSR sort gate): low polyreactivity

QVQLVESGGGLVQAGGSLRLSCAASGFIFFQNAMGWYRQAQGKERELVAAISRRGGSTYYADSVKGRFTISRDNAKNTVYLQMNSLKPEDTAVYYCAARSRGDLASLYTGDYWGQGTQVTVSS
polyreactivity (PSR sort gate): low polyreactivity

QVQLVESGGGLVQAGGSLRLSCAASGRTFVFNAMGWYRQAPGKERELVAAITKNGGSTYYADSVKGRFTISRDNAKNTVYLQMNSLKPEDTAVYYCAVRRGYPFYYWGQGTQVTVSS
polyreactivity (PSR sort gate): low polyreactivity

QVQLVESGGGLVQAGGSLRLSCAASGFTFYRYTMGWYRQAPGKERELFAAISARGVSTYYADSVKGRFTISRDNAKNTVYLQMNSLKPEDTAVYYCYVSRYDTWGQGTQVTVTS
polyreactivity (PSR sort gate): high polyreactivity

QVQLVESGGGLVQAGGSLRLSCAASGIIFRYYARVWYRQAPGKEREFVAAINYSGGSTYYADSVKGRFTISRDTAKYSVYLQMNSLKPEDTAVYYCAARSYTYTAPIYGYWGQGTQVTVSS
polyreactivity (PSR sort gate): high polyreactivity

QVQLVESGGGLVQAGGSLRLSCAASGSIFAYYAMGWYRQAPGKERELVADITSSGGITYYADSVKGRFTISRDNAKNTVYLQMNSLKPEDTAVYYCNADSWAIGGGSYPYDYWGQGTQVTVSS
polyreactivity (PSR sort gate): low polyreactivity

QVQLVESGGGLVQAGGSLRLSCAASGSIFVKNAMGWYRQAPGKERELVARITYSGGSTYYADSVKGRFTISRDNAKNTVYLQMNSLKPEDTAVYYCAARYWYFPQTYYPGNDYWGQGTQVTVSS
polyreactivity (PSR sort gate): high polyreactivity

QVQLVESGGGLVQAGGSLRLSCAASGITFAYYVMGWYRQAPGKERELVAAINWSGGSTYYADSVKGRFTISRDNAKNTVYLQMNSLKPEDTAVYYCAADWSTWYGEKFYWGQGTQVTVSS
polyreactivity (PSR sort gate): high polyreactivity

QVQLVESGGGLVQAGGSLRLSCAASGSTFTGYAMGWYRQAPGQERELVAAISRSGGSTYYADSVKGRFTISRDNAKNTVYLQMNSLKPEDTAVYYCNARGFTRYTVGRNYWGQGTQVTVSS
polyreactivity (PSR sort gate): high polyreactivity

QVQLVESGGGLVQAGGSLRLSCAASGITFASYAMGWYRQAPGKERELVAGISGSGGRTYYADSVKGRFTISRDNAKNTVYLQMNSLKPEDTAVYYCAARQWDIRASPPRYYRYDYWGQGTQVTVSS
polyreactivity (PSR sort gate): high polyreactivity

QVQLVESGGGLVQAGGSLRLSCAASGITFEYYDMGWYRQAPGKERELVAAISWSTDITYADSVKGRFTISRDNAKNTVYLQMNSLKPEDTAVYYCAASTYEYTSYDYWGHGTQVTVSS
polyreactivity (PSR sort gate): low polyreactivity

QVQLVESGGGLVQAGGSLRLSCAASGRIFRDYDMGWYRKAPGKEWELVAAITYRGGSTYYADSVKGRFTISRDNAKNTVYLQINSLKPEDTAVYYCAAGSRSPHWYTRELDYWVQGTQVTVSS
polyreactivity (PSR sort gate): low polyreactivity

QVQLVESGGGLVQAGGSLRLSCAASGSTFSRYAMGWYRQAPGKERELVAAITRSGGGTHYADSVKGRFTISRDNAKNTVYLQMNSLKPEDTAVYYCNVAGVLYPFVSYDYWGQGTQVTVSS
polyreactivity (PSR sort gate): low polyreactivity

QVQLVESGGGLVQAGGSLRLSSAASGGTFGGYTRRWSRQAPGKERELVAAITRRGSSTFYADSVKGRFTISRDNAKKTVYLQMNSLKPEDTAVYYCAARYIVYLRTQSERYNSYDYWAQGTQVTVSS
polyreactivity (PSR sort gate): high polyreactivity

QVQLVESGGGLVQAGGSLRLSCAASGRIFQTYAMGWYRQAPGKERELVAAISSRGRTYYADSVKGRFTISRDNAKNTVYLQMNSLKPEDTAVYYCAARDWSHRPRGYDYWGQGTQVTVSS
polyreactivity (PSR sort gate): high polyreactivity

QVQLVESGGGLVQAGGSLRLSCAASGYTFYRYAMGWYRQAPGKERELVAGIDRSGTRTYYADSVKGRFTISRDNAKNTVYLQMNSLKPEDTAVYYCNAVAYYVSKYDYWGQGTQVTVSS
polyreactivity (PSR sort gate): high polyreactivity

QVQLVESGGGLVQAGGSLRLSCAASGFTFFTYTMGWYRQAPGKERELVAAISRDGARTNYADSVKGRFTISRDNAKNTVYLQMNSLKPEDTAVYYCAAPTSHLYTEKYDYWGQGTQVTVSS
polyreactivity (PSR sort gate): high polyreactivity

QFQLVESGGGLVQAGGSLRLSCAASGSTFPLYAMGWYRPAPGKERELVAAITSGGGNTYYADSVKGRFTISRDNAKNTVYLQMNSLKPEDTAVYSCAAVGGYKSYYSYEYDYWGQGTQVTVSS
polyreactivity (PSR sort gate): low polyreactivity

QVQLVESGGCLVQAGGSLRLSCAASGRRVQTYAMGWYRQAPRKERELVAAISIRGGSTYYADSVKGRFTISRDNAKNTVYLQKNSLTPEDTAVYYCNALYGRQIVDYEYWGQGTQVTVSS
polyreactivity (PSR sort gate): low polyreactivity

QVQLVESGGGLVQAGGSLRLSCAASGFIFSYAMGWYRQAPGKERELVAAISKSGGRTYYADSVKGRFTISRDNAKNTVYLQMNSLKPEDTAVYYCAVRDLHLSIARYNYWGQGTQVTVSS
polyreactivity (PSR sort gate): high polyreactivity

QVQLVESGGGLVQAGGSLRLSCAASGSIFSRNAMGWYRQAPGKERELVAAISYSSGSTYYADSVKGRFTLSRDNAKNTVYLQMNSLKPEDTAVYYCAADTTKLQGAEVDFWGQGTQVTVSS
polyreactivity (PSR sort gate): low polyreactivity

QVQLVESGGGLVQAGGSLRLSCAASGGIFRQYAMGWYRQAPGKERELVAAISYNTGSTYYADSVKWRFTISRDNAKNTVYLQMNSLKPEDTAVYYCAKDIVIPATYVEYDYWGKGTQVTVSS
polyreactivity (PSR sort gate): low polyreactivity

QVLLQESGGGLVQAGGSLRLGCAASGTISPAYYMGRYHQAPGKEREFVAAITYGTNTYYADSEKGRFTISRDNAKNTVYLQMNSLKPEDTAVYYCSATAGYNGAHDYWGQVTQVTVSS
polyreactivity (PSR sort gate): low polyreactivity
